Assay results reported in US20220267441A1.
Changes are numbered by the printed parent chain.

B1: Antibody C (AbC) (antibody, IgG1, V domains shown)
VH: EVQLVESGGGLVQPGGSLRLSCAASGFTFNNYWMTWVRQAPGKGLEWVSSISSSGGSIYYPDSVKDRFTISRDNAKNSLYLQMNSLRAEDMAVYYCARLYYYDGGGDAWGQGTLVTVSS
VL: GIQMTQSPSSLSASVGDRVTITCKASQDINKYLDWYQQKPGKAPKLLIYNTNNLHTGIPSRFSGSGSGTDYTLTISSLQPEDFATYYCLQHISRWTFGGGTKVEIK
B2: Antibody 2 (Ab2) (antibody, V domains shown)
VH: EVQLVESGGGLVQPGGSLRLSCAASGFTFEAYSMNWVRQAPGKGLEWVSYISLSGATIHYADSVKGRFTISRDNAKNSLYLQMNSLRAEDTAVYYCARGGQYYYDSSDYGEVAFDIWGQGTMVTVSS
VL: DIVMTQSPLSLPVTPGEPASISCRSSQSLVSNGYNYLDWYLQKPGQSPQLLIYFGSSRASGVPDRFSGSGSGTDFTLKISRVEAEDVGVYYCMQRRRTPWSFGGGTKVEIK
B3: Antibody 6 (Ab6) (antibody, V domains shown)
VH: B2 VH with D105T, M122L
VL: B2 VL with M4L, N32S
B4: Antibody 7 (Ab7) (antibody, V domains shown)
VH: B2 VH with E1Q, Q13K, E30G, A31G, L53I, H59T
VL: DIVMTQSPLSLPVTPGEPASISCRSSQSLVSSGYNYLDWYLQKPGQSPQLLIYFGSSRASGVPDRFSGSGSGTDFTLKISRVEAEDVGVYYCMQRRRTPPFTFGGGTKVEIK
B5: Antibody 5 (Ab5) (antibody, V domains shown)
VH: B2 VH with D105T
VL: B2 VL with N32S
B6: Antibody 4 (Ab4) (antibody, V domains shown)
VH: B2 VH with D105T
VL: B2 VL
B7: Antibody 3 (Ab3) (antibody, V domains shown)
VH: B2 VH with E1Q, Q13K, E30G, A31G, L53I, H59T
VL: B4 VL with S32N
B8: Antibody A (AbA) (antibody, V domains shown)
VH: EVQLLESGGGLVQPGGSLRLSCAASGFTFNNYWMTWVRQAPGKGLEWVSSISSSGGSIYYPDRVKGRFTISRDNSKNTLYLQMNSLRAEDTAVYYCARDERWAGAMDAWGQGTTVTVSS
VL: DIQMTQSPSSLSASVGDRVTITCKASQNINKNLDWYQQKPGKAPKLLIYETNNLQTGVPSRFSGSGSGTDFTLTISSLQPEDFATYYCYQHNSRFTFGQGTKLEIK
B9: Antibody B (AbB) (antibody, IgG1, V domains shown)
VH: EVQLVESGGGLVQPGGSLRLSCAASGFTFTNFWMAWIRQAPGKGLEWVASISSSGGSIYYPDSVKDRFTISRDNSKNTLYLQMNSLRAEDTAVYYCVKFHHYSGGGDAWGQGTLVTVSS
VL: B1 VL with G1D, D28N, Y49H, N50Y, I92S

Biological target: purified cynomolgus CD45 ectodomain (cynomolgus monkey)
Test: BLI (Octet Red96), Table 11; the sentence does not name the species of CD45

Chain of purified cynomolgus CD45 ectodomain (cynomolgus monkey) (chain, as listed by the source limits assumed, form in doubt): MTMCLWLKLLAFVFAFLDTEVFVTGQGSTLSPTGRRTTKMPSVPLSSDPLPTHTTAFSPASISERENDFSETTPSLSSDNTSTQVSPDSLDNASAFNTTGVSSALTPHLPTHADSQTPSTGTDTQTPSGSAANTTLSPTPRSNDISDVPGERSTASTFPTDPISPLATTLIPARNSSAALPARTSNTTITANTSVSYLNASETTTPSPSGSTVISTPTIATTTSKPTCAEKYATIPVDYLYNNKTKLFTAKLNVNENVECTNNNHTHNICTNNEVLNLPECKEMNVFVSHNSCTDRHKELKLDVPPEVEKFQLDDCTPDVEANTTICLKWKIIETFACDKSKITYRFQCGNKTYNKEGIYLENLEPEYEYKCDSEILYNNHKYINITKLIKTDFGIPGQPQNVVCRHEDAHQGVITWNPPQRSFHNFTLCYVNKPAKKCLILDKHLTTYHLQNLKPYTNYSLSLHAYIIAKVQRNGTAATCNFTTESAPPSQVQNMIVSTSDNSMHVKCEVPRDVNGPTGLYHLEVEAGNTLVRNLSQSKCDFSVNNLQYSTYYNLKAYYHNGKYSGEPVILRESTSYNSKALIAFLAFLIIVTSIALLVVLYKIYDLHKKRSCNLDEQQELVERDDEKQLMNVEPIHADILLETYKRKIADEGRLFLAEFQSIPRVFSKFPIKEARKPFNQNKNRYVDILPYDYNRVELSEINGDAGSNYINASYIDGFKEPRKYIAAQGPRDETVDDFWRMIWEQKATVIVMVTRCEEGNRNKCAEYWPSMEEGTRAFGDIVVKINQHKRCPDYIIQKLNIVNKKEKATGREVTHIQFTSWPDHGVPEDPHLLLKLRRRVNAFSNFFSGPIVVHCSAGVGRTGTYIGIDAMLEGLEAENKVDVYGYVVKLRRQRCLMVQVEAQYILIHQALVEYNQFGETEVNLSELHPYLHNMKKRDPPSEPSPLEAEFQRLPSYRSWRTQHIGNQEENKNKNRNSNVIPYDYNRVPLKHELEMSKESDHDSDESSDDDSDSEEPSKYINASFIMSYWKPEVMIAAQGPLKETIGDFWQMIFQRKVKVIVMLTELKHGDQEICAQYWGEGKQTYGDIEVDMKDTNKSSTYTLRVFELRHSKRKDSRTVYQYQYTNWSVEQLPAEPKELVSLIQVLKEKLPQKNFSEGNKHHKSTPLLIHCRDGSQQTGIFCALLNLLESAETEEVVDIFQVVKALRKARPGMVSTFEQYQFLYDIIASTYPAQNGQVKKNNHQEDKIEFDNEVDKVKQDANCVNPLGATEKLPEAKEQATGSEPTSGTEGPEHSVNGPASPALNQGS

Row | fold improved affinity over the parent clone C [fold] | Binder
1 | > 4 | B1

Biological target: purified cynomolgus CD45 ectodomain (cynomolgus monkey)
Test: BLI (Octet Red96), IgG on anti-human Fc sensor, 50 nM CD45 ectodomain, 1:1 fit

Row | Kd [nM] | koff [s⁻¹] | kon [M⁻¹ s⁻¹] | Binder
2 | 1.08 | 0.000129 | 119000 | B2
3 | 1.3 | 0.000154 | 118000 | B3
4 | 4.24 | 0.000537 | 127000 | B4
5 | 1.4 | 0.000164 | 117000 | B5
6 | 0.721 | 7.89e-05 | 110000 | B6
7 | 1.61 | 0.000192 | 120000 | B7

Biological target: purified rhesus CD45 ectodomain (rhesus macaque)
Test: as above

Chain of purified rhesus CD45 ectodomain (rhesus macaque) (chain, as listed by the source limits assumed, form in doubt): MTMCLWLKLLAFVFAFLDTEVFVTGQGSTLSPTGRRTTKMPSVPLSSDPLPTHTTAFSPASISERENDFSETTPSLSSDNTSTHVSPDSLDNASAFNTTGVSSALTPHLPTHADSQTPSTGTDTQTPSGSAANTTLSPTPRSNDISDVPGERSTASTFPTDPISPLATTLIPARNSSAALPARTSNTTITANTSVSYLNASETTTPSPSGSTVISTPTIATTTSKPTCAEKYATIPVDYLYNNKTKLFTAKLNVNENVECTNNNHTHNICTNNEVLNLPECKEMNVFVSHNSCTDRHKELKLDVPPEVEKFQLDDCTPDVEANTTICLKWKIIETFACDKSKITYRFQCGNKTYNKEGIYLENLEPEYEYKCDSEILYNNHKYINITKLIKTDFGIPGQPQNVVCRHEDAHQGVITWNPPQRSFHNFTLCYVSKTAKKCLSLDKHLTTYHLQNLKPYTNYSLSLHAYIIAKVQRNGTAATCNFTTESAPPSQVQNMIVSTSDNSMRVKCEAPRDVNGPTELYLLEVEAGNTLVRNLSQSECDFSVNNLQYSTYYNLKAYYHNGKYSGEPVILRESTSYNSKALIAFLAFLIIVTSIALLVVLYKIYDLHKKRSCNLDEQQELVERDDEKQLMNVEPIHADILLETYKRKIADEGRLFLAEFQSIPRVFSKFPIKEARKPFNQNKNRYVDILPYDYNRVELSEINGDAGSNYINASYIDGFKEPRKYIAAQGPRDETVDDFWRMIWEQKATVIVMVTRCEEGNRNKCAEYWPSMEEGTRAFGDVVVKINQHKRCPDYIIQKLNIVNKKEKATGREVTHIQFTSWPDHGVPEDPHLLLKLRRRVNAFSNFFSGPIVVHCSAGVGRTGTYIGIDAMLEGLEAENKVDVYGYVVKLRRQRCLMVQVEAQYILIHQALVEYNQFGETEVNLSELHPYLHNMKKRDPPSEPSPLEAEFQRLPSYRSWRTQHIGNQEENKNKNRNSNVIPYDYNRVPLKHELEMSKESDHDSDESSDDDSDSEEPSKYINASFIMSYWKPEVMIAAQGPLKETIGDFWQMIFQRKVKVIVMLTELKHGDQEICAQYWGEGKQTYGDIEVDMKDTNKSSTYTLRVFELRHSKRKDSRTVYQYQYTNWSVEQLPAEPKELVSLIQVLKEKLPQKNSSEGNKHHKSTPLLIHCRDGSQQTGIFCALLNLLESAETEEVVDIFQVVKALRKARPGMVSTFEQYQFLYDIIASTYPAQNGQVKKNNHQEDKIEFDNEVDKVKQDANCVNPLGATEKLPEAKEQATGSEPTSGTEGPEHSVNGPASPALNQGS

Row | Kd [nM] | koff [s⁻¹] | kon [M⁻¹ s⁻¹] | Binder
8 | 1.42 | 0.000192 | 135000 | B2
9 | 1.44 | 0.000175 | 122000 | B3
10 | 4.39 | 0.000544 | 124000 | B4
11 | 1.71 | 0.000193 | 113000 | B5
12 | 0.867 | 0.000102 | 118000 | B6
13 | 1.65 | 0.000222 | 135000 | B7

Biological target: purified cynomolgus CD45 ectodomain (cynomolgus monkey)
Test: BLI (Octet Red96), antibody on anti-human Fc sensor, 300 nM cynomolgus CD45 ectodomain, 1:1 fit

Row | Kd [nM] | koff [s⁻¹] | kon [M⁻¹ s⁻¹] | Binder
14 | 34.1 | 0.000322 | 9440 | B8
15 | 25.3 | 0.000282 | 11100 | B1
16 | 51.5 | 0.00042 | 8160 | B9
